# B1: IRX6 (parent)
# chain: YPCLEKPRIWSLAHTATASAVEGA
# Variants of: B1
# Assay: protein stability index of a GFP-peptide fusion (GPS, HEK-293T) (PSI 1-6); higher = more stable
# Conditions: c terminus: a fixed tail appended
# 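Also: lentivirally expressed fusions sorted by FACS into six bins by GFP to DsRed ratio, PSI derived from sequencing read proportions per bin multiplied by bin number.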
row,Variant,protein stability index
1,YPCLEKPRQWSLAHTATASAVEGA,2.28
2,YPCLEKPRVWSLAHTATASAVEGA,3.31
3,YPCLEKPRDWSLAHTATASAVEGA,3.49
4,YPCLEKPRTWSLAHTATASAVEGA,1.51
5,YPCLEKPRRWSLAHTATASAVEGA,2.27
6,YPCLEKPRKWSLAHTATASAVEGA,2.46
7,YPCLEKPRAWSLAHTATASAVEGA,3.17
8,YPCLEKPREWSLAHTATASAVEGA,3.59
9,YPCLEKPRFWSLAHTATASAVEGA,2.3
10,YPCLEKPRHWSLAHTATASAVEGA,1.25
11,YPCLEKPRCWSLAHTATASAVEGA,1.98
12,YPCLEKPRGWSLAHTATASAVEGA,2.2
13,YPCLEKPRSWSLAHTATASAVEGA,1.65
14,YPCLEKPRPWSLAHTATASAVEGA,2.35
15,YPCLEKPRMWSLAHTATASAVEGA,3.85
16,YPCLEKPRLWSLAHTATASAVEGA,2.98
17,YPCLEKPRNWSLAHTATASAVEGA,2.48
18,YPCLEKPRYWSLAHTATASAVEGA,2.3
19,YPCLEKPRIWSLAHTATMSAVEGA,3.02
20,YPCLEKPRIWSLAHTATPSAVEGA,3.41
21,YPCLEKPRIWSLAHTATVSAVEGA,2.84
22,YPCLEKPRIWSLAHTATTSAVEGA,3.02
23,YPCLEKPRIWSLAHTATRSAVEGA,3.8
24,YPCLEKPRIWSLAHTATNSAVEGA,2.65

row,Variant,protein stability index
1,YPCLEKPRIWSLAHTATYSAVEGA,3
2,YPCLEKPRIWSLAHTATWSAVEGA,2.05
3,YPCLEKPRIWSLAHTATKSAVEGA,2.59
4,YPCLEKPRIWSLAHTATHSAVEGA,2.15
5,YPCLEKPRIWSLAHTATDSAVEGA,1.78
6,YPCLEKPRIWSLAHTATISAVEGA,3.17
7,YPCLEKPRIWSLDHTATASAVEGA,2.71
8,YPCLEKPRIWSLQHTATASAVEGA,2.46
9,YPCLEKPRIWSLKHTATASAVEGA,2.9
10,YPCLEKPRIWSLMHTATASAVEGA,1.35
11,YPCLEKPRIWSLVHTATASAVEGA,3.26
12,YPCLEKPRIWSLEHTATASAVEGA,2.17
13,YPCLEKPRIWSLIHTATASAVEGA,3.27
14,YPCLEKPRIWSLHHTATASAVEGA,2.74
15,YPCLEKPRIWSLGHTATASAVEGA,2.44
16,YPCLEKPRIWSLTHTATASAVEGA,1.96
17,YPCLEKPRIWSLPHTATASAVEGA,2.35
18,YPCLEKPRIWSLYHTATASAVEGA,3.33
19,YPCLEKPRIGSLAHTATASAVEGA,4
20,YPCLEKPRIRSLAHTATASAVEGA,4.26
21,YPCLEKPRIYSLAHTATASAVEGA,1.62
22,YPCLEKPRIVSLAHTATASAVEGA,3.85
23,YPCLEKPRIKSLAHTATASAVEGA,4.42
24,YPCLEKPRIFSLAHTATASAVEGA,1.98

row,Variant,protein stability index
1,YPCLEKPRIDSLAHTATASAVEGA,4.13
2,YPCLEKPRILSLAHTATASAVEGA,3.78
3,YPCLEKPRICSLAHTATASAVEGA,3.19
4,YPCLEKPRIISLAHTATASAVEGA,3.27
5,YPCLEKPRINSLAHTATASAVEGA,4.27
6,YPCLEKPRIQSLAHTATASAVEGA,4.16
7,YPCLEKPRIASLAHTATASAVEGA,4.14
8,YPCLEKPRITSLAHTATASAVEGA,4.09
9,YPCLEKPRIHSLAHTATASAVEGA,4.23
10,YPCLEKPRISSLAHTATASAVEGA,4.42
11,YPCLEKPRIPSLAHTATASAVEGA,4.3
12,YPCLEKPRIESLAHTATASAVEGA,4.71
13,YPCLEKPRIMSLAHTATASAVEGA,3.65
14,YPCLEKPRIWSRAHTATASAVEGA,2.19
15,YPCLEKPRIWSVAHTATASAVEGA,1.58
16,YPCLEKPRIWSTAHTATASAVEGA,2.72
17,YPCLEKPRIWSNAHTATASAVEGA,1.72
18,YPCLEKPRIWSCAHTATASAVEGA,3.12
19,YPCLEKPRIWSGAHTATASAVEGA,2.03
20,YPCLEKPRIWSMAHTATASAVEGA,2.36
21,YPCLEKPRIWSPAHTATASAVEGA,3.53
22,YPCLEKPRIWSFAHTATASAVEGA,2.26
23,YPCLEKPRIWSEAHTATASAVEGA,1.7
24,YPCLEKPRIWSDAHTATASAVEGA,2.91

row,Variant,protein stability index
1,YPCLEKPRIWSKAHTATASAVEGA,2.72
2,YPCLEKPRIWSIAHTATASAVEGA,2.81
3,YPCLEKPRIWSQAHTATASAVEGA,2.87
4,YPCLEKPRIWSLAHTATASAHEGA,2.21
5,YPCLEKPRIWSLAHTATASADEGA,1.82
6,YPCLEKPRIWSLAHTATASAFEGA,3.51
7,YPCLEKPRIWSLAHTATASACEGA,1.23
8,YPCLEKPRIWSLAHTVTASAVEGA,4.23
9,YPCLEKPRIWSLAHTETASAVEGA,4.29
10,YPCLEKPRIWSLAHTTTASAVEGA,3.04
11,YPCLEKPRIWSLAHTSTASAVEGA,1.93
12,YPCLEKPRIWSLAHTWTASAVEGA,3.44
13,YPCLEKPRIWSLAHTYTASAVEGA,2.99
14,YPCLEKPRIWSLAHTQTASAVEGA,2.45
15,YPCLEKPRIWSLAHTITASAVEGA,1.94
16,YPCLEKPRIWSLAHTMTASAVEGA,3.88
17,YPCLEKPRIWSLAHTLTASAVEGA,1.87
18,YPCLEKPRIWSLAHTHTASAVEGA,1.77
19,YPCLEKPRIWSLAHTKTASAVEGA,2.68
20,YPCLEKPRIWSLAHTFTASAVEGA,5.06
21,YPCLEKPRIWSLAHTPTASAVEGA,1.53
22,YPCLEKPRIWSLAHTDTASAVEGA,1.89
23,YPCLEKPRIWSLAHTCTASAVEGA,2.12
24,YPCLEKPRIWSLAHTNTASAVEGA,3.02

row,Variant,protein stability index
1,YPCLEKPRIWSLAHTATASEVEGA,1.86
2,YPCLEKPRIWSLAHTATASKVEGA,3.07
3,YPCLEKPRIWSLAHTATASTVEGA,2.11
4,YPCLEKPRIWSLAHTATASFVEGA,1.69
5,YPCLEKPRIWSLAHTATASYVEGA,4.34
6,YPCLEKPRIWSLAHTATASLVEGA,3.52
7,YPCLEKPRIWSLAHTATASMVEGA,1.53
8,YPCLEKPRIWSLAHTATASIVEGA,2.52
9,YPCLEKPRIWSLAHTATASHVEGA,3.49
10,YPCLEKPRIWSLAHTATASDVEGA,2.67
11,YPCLEKPRIWSLAHTATASNVEGA,2.87
12,YPCLEKPRIWSLAHTAEASAVEGA,3.16
13,YPCLEKPRIWSLAHTAQASAVEGA,4.21
14,YPCLEKPRIWSLAHTAGASAVEGA,3.55
15,YPCLEKPRIWSLAHTADASAVEGA,2.17
16,YPCLEKPRIWSLAHTAWASAVEGA,2.29
17,YPCLEKPRIWSLAHTAYASAVEGA,2.64
18,YPCLEKPRIWSLAHTAMASAVEGA,2.36
19,YPCLEKPRIWSLAHTALASAVEGA,1.25
20,YPCLEKPRIWSLAHTAKASAVEGA,2
21,YPCLEKPRIWSLAHTANASAVEGA,2.37
22,YPCLEKPRIWSLAHTAPASAVEGA,2.72
23,YPCLEKPRIWSLAHTAAASAVEGA,1.71
24,YPCLEKPRIWSLAHTASASAVEGA,1.83

row,Variant,protein stability index
1,YPCLEKTRIWSLAHTATASAVEGA,3.24
2,YPCLEKKRIWSLAHTATASAVEGA,3.5
3,YPCLEKMRIWSLAHTATASAVEGA,2.92
4,YPCLEKYRIWSLAHTATASAVEGA,2.59
5,YPCLEKVRIWSLAHTATASAVEGA,1.89
6,YPCLEKQRIWSLAHTATASAVEGA,2.32
7,YPCLEKPRIWYLAHTATASAVEGA,2.16
8,YPCLEKPRIWVLAHTATASAVEGA,1.99
9,YPCLEKPRIWLLAHTATASAVEGA,1.87
10,YPCLEKPRIWELAHTATASAVEGA,1.99
11,YPCLEKPRIWNLAHTATASAVEGA,2.31
12,YPCLEKPRIWQLAHTATASAVEGA,1.53
13,YPCLEKPRIWRLAHTATASAVEGA,2.05
14,YPCLEKPRIWILAHTATASAVEGA,2.48
15,YPCLEKPRIWKLAHTATASAVEGA,2.58
16,YPCLEKPRIWALAHTATASAVEGA,1.3
17,YPCLEKPRIWFLAHTATASAVEGA,1.94
18,YPCLEKPRIWCLAHTATASAVEGA,1.61
19,YPCLEKPRIWDLAHTATASAVEGA,1.74
20,YPCLEKPRIWMLAHTATASAVEGA,1.82
21,YPCLEKPRIWHLAHTATASAVEGA,1.86
22,YPCLEKPRIWSLAHCATASAVEGA,3.17
23,YPCLEKPRIWSLAHRATASAVEGA,3.79
24,YPCLEKPRIWSLAHKATASAVEGA,3.51

row,Variant,protein stability index
1,YPCLEKPRIWSLAHAATASAVEGA,2.74
2,YPCLEKPRIWSLAHHATASAVEGA,3.31
3,YPCLEKPRIWSLAHWATASAVEGA,2.34
4,YPCLEKPRIWSLAHSATASAVEGA,2.26
5,YPCLEKPRIWSLAHIATASAVEGA,1.72
6,YPCLEKPRIWSLAHGATASAVEGA,1.75
7,YPCLEKPRIWSLAHDATASAVEGA,2.85
8,YPCLEKPRIWSLAHLATASAVEGA,1.12
9,YPCLEKPRIWSLAMTATASAVEGA,2.34
10,YPCLEKPRIWSLAFTATASAVEGA,4.18
11,YPCLEKPRIWSLALTATASAVEGA,3.94
12,YPCLEKPRIWSLAQTATASAVEGA,2.52
13,YPCLEKPRIWSLAPTATASAVEGA,2.48
14,YPCLEKPRIWSLAITATASAVEGA,1.41
15,YPCLEKPRIWSLASTATASAVEGA,2.18
16,YPCLEKPRIWSLAVTATASAVEGA,3.43
17,YPCLEKPRIWSLAETATASAVEGA,1.84
18,YPCLEKPRIWSLADTATASAVEGA,2.01
19,YPCLEKPRIWSLAKTATASAVEGA,1.66
20,YPCLEKPVIWSLAHTATASAVEGA,2.48
21,YPCLEKPNIWSLAHTATASAVEGA,3.06
22,YPCLEKPCIWSLAHTATASAVEGA,3.13
23,YPCLEKPYIWSLAHTATASAVEGA,2.17
24,YPCLEKPDIWSLAHTATASAVEGA,3.96

row,Variant,protein stability index
1,YPCLEKPFIWSLAHTATASAVEGA,2.49
2,YPCLEKPHIWSLAHTATASAVEGA,1.83
3,YPCLEKPEIWSLAHTATASAVEGA,2.22
4,YPCLEKPLIWSLAHTATASAVEGA,3.04
5,YPCLEKPIIWSLAHTATASAVEGA,2.87
6,YPCLEKPQIWSLAHTATASAVEGA,1.96
7,YPCLEKPMIWSLAHTATASAVEGA,2.79
8,YPCLEKPPIWSLAHTATASAVEGA,2.2
9,YPCLEKPRIWSLAHTATAVAVEGA,2.07
10,YPCLEKPRIWSLAHTATADAVEGA,1.83
11,YPCLEKPRIWSLAHTATANAVEGA,2.27
12,YPCLEKPRIWSLAHTATAIAVEGA,2.52
13,YPCLEKPRIWSLAHTATAKAVEGA,1.9
14,YPCLEKPRIWSLAHTATAYAVEGA,4.1
15,YPCLEKPRIWSLAHTATAQAVEGA,3.07
16,YPCLEKPRIWSLAHTATARAVEGA,1.91
17,YPCLEKPRIWSLAHTATAMAVEGA,2.98
18,YPCLEKPRIWSLAHTATAEAVEGA,1.97
19,YPCLEKPRIWSLAHTATAWAVEGA,3.1
20,YPCLEKPRIWSLAHTATAFAVEGA,3.32

# Reference: the supplement of paper PMC10567573
